Settings: Carica papaya, Thermal, DSC, glycine-HCl 5 mM, reversible: yes

Chymopapain wild type, P14080, sequence (P14080 whole entry): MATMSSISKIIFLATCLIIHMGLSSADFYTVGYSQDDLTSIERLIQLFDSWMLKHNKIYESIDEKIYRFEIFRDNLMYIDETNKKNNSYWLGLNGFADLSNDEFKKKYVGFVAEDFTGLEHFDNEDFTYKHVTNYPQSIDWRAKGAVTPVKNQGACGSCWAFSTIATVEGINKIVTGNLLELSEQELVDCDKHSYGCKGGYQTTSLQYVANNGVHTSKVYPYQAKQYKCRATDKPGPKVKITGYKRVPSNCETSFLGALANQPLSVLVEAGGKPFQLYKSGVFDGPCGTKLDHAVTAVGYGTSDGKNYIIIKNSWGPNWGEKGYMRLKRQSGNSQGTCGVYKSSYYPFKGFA

Chymopapain wild type, P14080
Tm (pH 1.9): 69.3 °C | unfolding enthalpy (calorimetric) (pH 1.9): 147 kcal/mol | unfolding enthalpy (van 't Hoff) (pH 1.9): 88.3 kcal/mol | Tm (pH 2.4): 71.6 °C | unfolding enthalpy (calorimetric) (pH 2.4): 154 kcal/mol | unfolding enthalpy (van 't Hoff) (pH 2.4): 87.9 kcal/mol | Tm (pH 2.9): 78.3 °C | unfolding enthalpy (calorimetric) (pH 2.9): 175 kcal/mol | unfolding enthalpy (van 't Hoff) (pH 2.9): 95.2 kcal/mol | Tm (pH 3.5): 85.8 °C | unfolding enthalpy (calorimetric) (pH 3.5): 232 kcal/mol | unfolding enthalpy (van 't Hoff) (pH 3.5): 125 kcal/mol
